Patent publication US20240425828

Columns and labels:
[1] = target: Prototype foamy virus integrase (PFV IN) wild type, tetrameric intasome (Prototype foamy virus) (UniProt P14350); conditions: smTIRF FRET, stalling at gap; 110 mM NaCl, 2 mM MgSO4, 24 C
[2] = target: Prototype foamy virus integrase (PFV IN) wild type, tetrameric intasome (Prototype foamy virus) (UniProt P14350); conditions: smTIRF lifetime at physiological buffer; searches 1.6 kb; integration rare

Substance	binding (% of search events with integration) [1]	binding [2] [s]
60 bp target DNA with 1 or 2 base gap	20	
23 kb naked linear DNA		2.1
